The values below are quoted from earlier work in paper PMC4134560.

In this series the target is p53 (Homo sapiens) (UniProt P04637). The note with it: cited from earlier work.

Some results are limits rather than exact numbers.

For p53 (from UniProt P04637), the Kd (in general, the constant that tells how readily two partners part at equilibrium) is less than 1000 nM.
